# B1: Guanyl-specific ribonuclease Sa wild type, P05798 (protein)
# chain: DVSGTVCLSALPPEATDTLNLIASDGPFPYSQDGVVFQNRESVLPTQSYGYYHEYTVITPGARTRGTRRIITGEATQEDYYTGDHYATFSLIDQTC
# Details: Kitasatospora aureofaciens, 30 °C, GdnHCl, reversible: yes (>98%), whole UniProt chain shown
protein,measurement,setting,value
B1,denaturant m value,"pH 5.5, CD, None",2.32 kcal/mol/M
same,unfolding free energy,"pH 5.5, CD, None",7.5 kcal/mol
same,unfolding free energy,"pH 5.5, NMR hydrogen exchange",2.82 kcal/mol
same,denaturant m value,"pH 5.9, CD, None",2.3 kcal/mol/M
same,unfolding free energy,"pH 5.9, CD, None",6.7 kcal/mol

# Reference: FireProtDB (doi:10.1021/bi050142b)
